B1: CREBH: cAMP-responsive element-binding protein, hepatocyte specific; SEQ ID NO:1; expressed by lentiviral transduction (protein, listed as Homo sapiens)
chain: MNTDLAAGKMASAACSMDPIDSFELLDLLFDRQDGILRHVELGEGWGHVKDQQVLPNPDSDDFLSSILGSGDSLPSSPLWSPEGSDSGISEDLPSDPQDTPPRSGPATSPAGCHPAQPGKGPCLSYHPGNSCSTTTPGPVIQVPEASVTIDLEMWSPGGRICAEKPADPVDLSPRCNLTVKDLLLSGSSGDLQQHHLGASYLLRPGAGHCQELVLTEDEKKLLAKEGITLPTQLPLTKYEERVLKKIRRKIRNKQSAQESRKKKKEYIDGLETRMSACTAQNQELQRKVLHLEKQNLSLLEQLKKLQAIVVQSTSKSAQTGTCVAVLLLSFALIILPSISPFGPNKTESPGDFAPVRVFSRTLHNDAASRVAADAVPGSEAPGPRPEADTTREESPGSPGADWGFQDTANLTNSTEELDNATLVLRNATEGLGQVALLDWVAPGPSTGSGRAGLEAAGDEL
B2: SCARF2: Scavenger receptor family F protein, SEQ ID NO:8, overexpressed in HepG2-NTCP cells (protein, listed as Homo sapiens)
chain: MEGAGPRGAGPARRRGAGGPPSPLLPSLLLLLLLWMLPDTVAPQELNPRGRNVCRAPGSQVPTCCAGWRQQGDECGIAVCEGNSTCSENEVCVRPGECRCRHGYFGANCDTKCPRQFWGPDCKELCSCHPHGQCEDVTGQCTCHARRWGARCEHACQCQHGTCHPRSGACRCEPGWWGAQCASACYCSATSRCDPQTGACLCHAGWWGRSCNNQCACNSSPCEQQSGRCQCRERTFGARCDRYCQCFRGRCHPVDGTCACEPGYRGKYCREPCPAGFYGLGCRRRCGQCKGQQPCTVAEGRCLTCEPGWNGTKCDQPCATGFYGEGCSHRCPPCRDGHACNHVTGKCTRCNAGWIGDRCETKCSNGTYGEDCAFVCADCGSGHCDFQSGRCLCSPGVHGPHCNVTCPPGLHGADCAQACSCHEDTCDPVTGACHLETNQRKGVMGAGALLVLLVCLLLSLLGCCCACRGKDPTRRPRPRRELSLGRKKAPHRLCGRFSRISMKLPRIPLRRQKLPKVVVAHHDLDNTLNCSFLEPPSGLEQPSPSWSSRASFSSFDTTDEGPVYCVPHEEAPAESRDPEVPTVPAEAPAPSPVPLTTPASAEEAIPLPASSDSERSASSVEGPGGALYARVARREARPARARGEIGGLSLSPSPERRKPPPPDPATKPKVSWIHGKHSAAAAGRAPSPPPPGSEAAPSPSKRKRTPSDKSAHTVEHGSPRTRDPTPRPPGLPEEATALAAPSPPRARARGRGPGLLEPTDAGGPPRSAPEAASMLAAELRGKTRSLGRAEVALGAQGPREKPAPPQKAKRSVPPASPARAPPATETPGPEKAATDLPAPETPRKKTPIQKPPRKKSREAAGELGRAGAPTL
B3: CREBH-122-318: truncated form of CREBH, residues 122-318, SEQ ID NO:3 (protein)
chain: MCLSYHPGNSCSTTTPGPVIQVPEASVTIDLEMWSPGGRICAEKPADPVDLSPRCNLTVKDLLLSGSSGDLQQHHLGASYLLRPGAGHCQELVLTEDEKKLLAKEGITLPTQLPLTKYEERVLKKIRRKIRNKQSAQESRKKKKEYIDGLETRMSACTAQNQELQRKVLHLEKQNLSLLEQLKKLQAIVVQSTSKSA
B4: CREBH-211-318: truncated form of CREBH, residues 211-318, SEQ ID NO:4, expresses only the bZIP domain (protein)
chain: QELVLTEDEKKLLAKEGITLPTQLPLTKYEERVLKKIRRKIRNKQSAQESRKKKKEYIDGLETRMSACTAQNQELQRKVLHLEKQNLSLLEQLKKLQAIVVQSTSKSA

Legend:
SCARF2 EGF4-6 proteins = target: T1, SCARF2 EGF4-6 proteins (Homo sapiens, UniProt Q96GP6); experiment: immunoprecipitation of biotin labeled preS1 polypeptides with SCARF2 EGF4-6; type: binding
T1 construct: Precision (protease site) tag (internal); human Fc tag (IgG1) (C); made in house; host or cells: 293F cells (pCAGGs vector), purified with Protein A beads
T1 sequence (Q96GP6 183-270): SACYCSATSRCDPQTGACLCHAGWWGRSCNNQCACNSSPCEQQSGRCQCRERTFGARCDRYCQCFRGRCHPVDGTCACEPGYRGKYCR
Source text: Compared with SVPs, the virus particles were rich in L protein, and the main functional segment of L protein was the preS1 segment; it was therefore speculated that the SCARF2 EGF4-6 proteins interact with the preS1 segment of the L protein of the virus. […] The C-terminus of each of the synthesized peptides was biotin labeled.

[1] = target: polypeptide containing amino acids 69-108 of preS1 (peptide^69-108) (hepatitis B virus); experiment: ForteBio Octet (BLI), biotin-labeled peptide
polypeptide containing amino acids 69-108 of preS1 (peptide^69-108) (hepatitis B virus), sequence (P03138 69-108): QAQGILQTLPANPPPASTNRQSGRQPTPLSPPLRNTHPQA

[2] = target: polypeptide containing amino acids 69-108 of preS1 (peptide^69-108) (hepatitis B virus); experiment: ForteBio Octet; sensorgrams at 200, 100, 50 and 25 µg/mL
HBV [3] = experiment: HBV infection of HepG2-NTCP cells transduced with CREBH and truncated forms (ELISA, HBcAg staining); type: cell-based; settings: transduced before infection; for HBV infection efficiency (ELISA): 1% PEG and 5% PEG, compared with PWPI-B empty control
Protocol: HepG2-NTCP cells were transduced with lentivirus embedded with CREBH and truncated forms thereof. After 24 hours, the cells were re-seeded in a culture plate, and the culture medium was changed to PMM. After 24 hours, the cells were infected with HBV in the presence of 1% PEG and 5% PEG respectively. Supernatant was collected every 2 days and assayed using an ELISA kit.
HBcAg staining was also performed in the experiments, and results were consistent with the ELISA results. […] It was thus speculated that these two truncated forms might have exerted a dominant-negative effect.

APOA4 gene = experiment: relative expression of APOA4 after transduction of truncated forms into HepG2-NTCP cells; type: cell-based
Protocol: In order to detect whether each truncated form still had transcriptional activation ability, experiments were conducted by using the activation of APOA4 gene reported in the literature as an indicator of the transcriptional activation ability of CREBH. After the truncated forms were transduced into HepG2-NTCP cells, relative expression of APOA4 was detected. […] CREBH-C also had relatively high activation efficiency, which however was about ⅓ of the activation efficiency of the full-length CREBH.

NTCP mRNA = NTCP mRNA level under CREBH overexpression; type: cell-based; settings: overexpression in HepG2-NTCP
Source text: NTCP is a key receptor in HBV infection and can directly bind to the PreS1 region on the virus. Many factors capable of affecting HBV infection may indirectly affect HBV infection by affecting the expression level or cellular localization of NTCP. In order to detect whether CREBH enhances HBV infection by affecting NTCP, changes in NTCP mRNA level under the condition of overexpressing CREBH was first detected.

SCARF2 gene = experiment: SCARF2 expression after transduction of CREBH and truncated forms (mRNA sequencing, quantitative PCR); type: cell-based; settings: HepG2-NTCP cells transduced
Source text: Since the results of the infection occurred after the transduction of truncated forms of CREBH indicate that the transcriptional activation function of CREBH is necessary for enhancement of the infection, and the shortest functional truncated form CREBH-122-318 is localized on the nucleus, it is inferred that it is by activating a downstream gene that CREBH enhances HBV entry. In order to more accurately determine the downstream major gene, HepG2-NTCP cells transduced with CREBH, CREBH-122, CREBH-307, CREBH-122-318, CREBH-211-318, PWPI-B, and PMM were selected and used for transcriptome sequencing experiments. Meanwhile, CREBH siRNA-2 was selected and used to knock down CREBH in HepG2-NTCP cells. siNC was used as a negative control. Changes in transcriptomes were detected.
The same conclusion was also made from subsequent experiments using quantitative PCR, and the expression levels of SCARF2 were completely consistent with the enhancement effects of CREBH and its various truncated forms on HBV infection observed in the previous text.

hepatitis D virus (HDV) = experiment: HDV infection; type: cell-based
Source text: This phenomenon can be explained and discussed from the following aspects. First, the present invention finds that HDV infection is more dependent on the expression of NTCP on the cell membrane than HBV infection, and HDV infection can occur more easily at a low PEG concentration. Although HDV and HBV have the same viral outer membrane, HDV can be assembled in the absence of L protein. […] Second, SCARF2 contains, at its C-terminus, a signal that can lead to its localization to the nuclear membrane, and a mutant with deletion of the C-terminal Proline-rich domain cannot enhance the infection.

HBV [4] = experiment: cDNA library screening by HBV infection of HepG2-NTCP cells in 1% PEG; type: cell-based
Protocol: The cDNA library was prepared by packaging lentivirus, with HepG2-NTCP cells expressing the cDNA clones being packaged therein. After 24 hours, infection was conducted with HBV at a same tier in the presence of 1% PEG. Culture supernatant was collected every 2 days, and was tested with HBeAg and HBsAg kits.

HBV [5] = experiment: HBV infection of HepG2-NTCP cells overexpressing SCARF2; type: cell-based
Protocol: FIGS. 8A, 8B, and 8C are schematic diagrams showing the effects of transduction of SCARF2 on infection in Example 6. (FIG. 8A) HepG2-NTCP cells were transduced with SCARF2, CREBH-122, or PWPI, and then infected with HBV in the presence of 1% PEG. (FIG. 8B) HepG2-NTCP cells were transduced with SCARF2, CREBH-122, or PWPI, and then infected with HBV in the presence of 5% PEG. (FIG. 8C) Nuclear and cytoplasmic fractions of the cells at 0 hour, 6 hours, 24 hours, and 72 hours after infection were isolated, and content of HBV DNA in each of the fractions was detected by southern-blot.
In the present invention, SCARF2 was first overexpressed in HepG2-NTCP cell line to test the effects of SCARF2 on HBV infection. […] Meanwhile, from HepG2-NTCP cell line stably expressing SCARF2, HBV DNA was isolated for analysis from the cytoplasm and the nucleus at different time points of HBV infection.

[6] = HepG2-NTCP stably expressing SCARF2, southern-blot

| Molecule | HBV infection efficiency (ELISA) (HBV [3]) | activation of APOA4 gene (relative expression) (APOA4 gene) | NTCP mRNA level (NTCP mRNA) | expression of SCARF2 (SCARF2 gene) | HDV infection (hepatitis D virus (HDV)) | other results |
| --- | --- | --- | --- | --- | --- | --- |
| CC[C@H](C)[C@H](NC(=O)CNC(=O)[C@H](CCC(N)=O)NC(=O)[C@H](C)NC(=O)[C@@H](N)CCC(N)=O)C(=O)N[C@@H](CC(C)C)C(=O)N[C@@H](CCC(N)=O)C(=O)N[C@H](C(=O)N[C@@H](CC(C)C)C(=O)N1CCC[C@H]1C(=O)N[C@@H](C)C(=O)N[C@@H](CC(N)=O)C(=O)N1CCC[C@H]1C(=O)N1CCC[C@H]1C(=O)N1CCC[C@H]1C(=O)N[C@@H](C)C(=O)N[C@@H](CO)C(=O)N[C@H](C(=O)N[C@@H](CC(N)=O)C(=O)N[C@@H](CCCNC(=N)N)C(=O)N[C@@H](CCC(N)=O)C(=O)N[C@@H](CO)C(=O)NCC(=O)N[C@@H](CCCNC(=N)N)C(=O)N[C@@H](CCC(N)=O)C(=O)N1CCC[C@H]1C(=O)N[C@H](C(=O)N1CCC[C@H]1C(=O)N[C@@H](CC(C)C)C(=O)N[C@@H](CO)C(=O)N1CCC[C@H]1C(=O)N1CCC[C@H]1C(=O)N[C@@H](CC(C)C)C(=O)N[C@@H](CCCNC(=N)N)C(=O)N[C@@H](CC(N)=O)C(=O)N[C@H](C(=O)N[C@@H](Cc1c[nH]cn1)C(=O)N1CCC[C@H]1C(=O)N[C@@H](CCC(N)=O)C(=O)N[C@@H](C)C(=O)O)[C@@H](C)O)[C@@H](C)O)[C@@H](C)O)[C@@H](C)O [peptide^69-108] | – | – | – | – | – | binding to SCARF2 EGF4-6 proteins (SCARF2 EGF4-6 proteins): specifically bound |
| SCARF2 EGF4-6 protein (from UniProt Q96GP6 183-270) (Fc fusion) | – | – | – | – | – | Kd [1]: 58 nM; koff [2]: 0.000289 s⁻¹; kon [2]: 4970 M⁻¹ s⁻¹ |
| B1 | increase the infection efficiency | strongest activation effect | slightly down-regulated | can up-regulate the expression of SCARF2 gene, but not to a very significant level | neither of CREBH and SCARF2 can enhance | number of HBcAg-positive cells (HBV [4]; HBcAg staining): remarkably increases; HBV infection (HBeAg, HBsAg in supernatant) (HBV [4]; HepG2-NTCP cells expressing cDNA clone, 1% PEG): remarkably enhances HBV infection |
| B2 | – | – | – | – | neither of CREBH and SCARF2 can enhance | HBV infection (HBV [5]; 1% PEG or 5% PEG): can enhance HBV infection; HBV DNA in fractions of the cytoplasm (HBV [5]; [6]): slightly increased; rcDNA and cccDNA in fractions of the nucleus (HBV [5]; [6]): significantly increased |
| B3 | increase the infection efficiency | capable of activating APOA4 gene to some extent | slightly down-regulated | significantly up-regulates SCARF2 | – | – |
| B4 | – | – | – | does not lead to a change in SCARF2 expression | – | HBV infection (HBcAg staining, consistent with ELISA) (HBV [3]): to some certain extent inhibited the infection |

Reference: patent US20230038883A1, “SPECIFIC HOST FACTOR OF HEPATITIS B VIRUS INFECTION, AND USE THEREOF” (priority 2020, published 2023)
